{
  "source": "patent US20040127421",
  "molecular_target": "T1, 19-mer (SEQ ID NO:11) PRCGNPDVANYNFFPRKPK",
  "T1 chain": "PRCGNPDVANYNFFPRKPK",
  "data": [
    {"protein": "Proenzyme pro-MMP-9 (protein) APRQRQSTLVLFPGDLRTNLTDRQLAEEYLYRYGYTRVAEMRGESKSLGPALLLLQKQLSLPETGELDSATLKAMRTPRCGVPDLGRFQTFEGDLKWHHHNITYWIQNYSEDLPRAVIDDAFARAFALWSAVTPLTFTRVYSRDADIVIQFGVAEHGDGYPFDGKDGLLAHAFPPGPGIQGDAHFDDDELWSLGKGVVVPTRFGNADGAACHFPFIFEGRSYSACTTDGRSDGLPWCSTTANYDTDDRFGFCPSERLYTQDGNADGKPCQFPFIFQGQSYSACTTDGRSDGYRWCATTANYDRDKLFGFCPTRADSTVMGGNSAGELCVFPFTFLGKEYSTCTSEGRGDGRLWCATTSNFDSDKKWGFCPDQGYSLFLVAAHEFGHALGLDHSSVPEALMYPMYRFTEGPPLHKDDVNGIRHLYGPRPEPEPRPPTTTTPQPTAPPTVCPTGPPTVHPSERPTAGPTGPPSAGPTGPPTAGPSTATTVPLSPVDDACNVNIFDAIAEIGNQLYLFKDGKYWRFSEGRGSRPQGPFLIADKWPALPRKLDSVFEERLSKKLFFFSGRQVWVYTGASVLGPRRLDKLGLGADVAQVTGALRSGRGKMLLFSGRRLWRFDVKAQMVDPRSASEVDRMFPGVPLDTHDVFQYREKAYFCQDRFYWRVSSRSELNQVDQVGYVTYDILQCPED", "values": [
      {"measurement": "conversion of pro-MMP-9 into prodomain and active enzyme by stromilysin (HPLC peak areas)", "value": "Titrating the standard splicing reaction with the 19-mer prevents the conversion of pro-MMP-9 into the prodomain and the active enzyme. Splicing can be inhibited in a dose dependent manner with micromolar 19-mer."}
    ]}
  ]
}
